Experimental data as given in the nanobody polyreactivity screen of Harvey et al. (2022).

Assay: yeast display, Sf9 membrane polyspecificity reagent, FACS + sequencing; frameworks hold sequencing errors
Procedure, shortened: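 Synthetic nanobody libraries on Saccharomyces cerevisiae BJ5465 were galactose-induced for 36–48 hours, stained 1 hour at 4 °C with 10% biotinylated, detergent-solubilized Sf9 membrane reagent and enriched on streptavidin microbeads. FACS then separated cells into low and high (top ~1%) gates by anti-HA (expression) and streptavidin (reagent binding) fluorescence. Genes were colony-PCR amplified, MiSeq 2 × 250 sequenced and CDR-length filtered. A clone's polyreactivity label is that of its gate of origin.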

Sequence	polyreactivity (PSR sort gate)
QVQLVESGGGLVQAGGSLRLSCAASGFIFTWYAMGWYRQAPGKEREFVAAITSRGTSTYYADSVKGRFTISRDNAKNTVYLQMNSLKPEDTAVYYCAARASYTRRHVGRPYDYWGQGTQVTVSS	high polyreactivity
QVQLVESGGGLVQAGGSLRLSCAASGFIFTWYAMGWYRQAPGKEREFVAGISRSGGRTYYADSVKGRFTISRDNAKNTVYLHVNSLKPEVTAVFYCGAKYYIGFWLRDYYYWGQCTQVTVSS	high polyreactivity
QVQLVESGGGLVQAGGSLRLSCAASGFIFTWYTMGWYRQAPGKERELVAAITSGGNTNYADSVKGRFTISRDNAKNTVYLQMNSLKPEDTAVYYCARGYLASRLKFAKYDYWGQGTQVTVSS	high polyreactivity
QVQLVESGGGLVQAGGSLRLSCAASGFIFTYNDMGWYRQAPGKERELVASITWDGGRTYYADAVKGRCTISRDNAKNTVYLQMISLKPEDTADYYCAKRLGGSPIQARGDYWGQGTQVTVSS	low polyreactivity
QVQLVESGGGLVQAGGSLRLSCAASGFIFVAYAMGWSRQAPGKERELVAAITSSGGRTYYADSVKGRFTISRDNAKNTVYLQMNSLKPEDTAVYYCAARVYRSAKGYNYWGQGTQVTVSS	high polyreactivity
QVQLVESGGGLVQAGGSLRLSCAASGFIFVDYAMGWYRQAPGTERELVAAITSSGDRTYYADSVKGRFTISRDNAKNTVYLQMNSLKPEDTAVYYCNADWSTAWYTSYDYWGQGTQVTVSS	low polyreactivity
QVQLVESGGGLVQAGGSLRLSCAASGFIFVFNAMGWYRQAPGKERELVAAITWSAGSTYYADSVKGRFTISRDTAKKTVDLQKNSLKPEDTAVYYCAADNWPWPEKPDKSILYDYWGQGTQVTVSS	low polyreactivity
QVQLVESGGGLVQAGGSLRLSCAASGFIFVFYDMGWYRQAPGKERELVAGITRNDGSTYYADSVKGRFKISRDNAKNTVYLQMNSLKPEDTAVYYCAAESAGSYLDYYWAYGYWGQGTQVTVSS	low polyreactivity
QVQLVESGGGLVQAGGSLRLSCAASGFIFVKNAMGWYRQAPGKERELVATINCGSSTTYADSVKGRFTISRDNAKNTVYLQMNSLKPEDTAVYYCNADDVENWTEYDYWGQGTQVTVSS	low polyreactivity
QVQLVESGGGLVQAGGSLRLSCAASGFIFVLNVMGWYRQAPGKERELVAAITWRGTSTYYADSVKGRFTISRDNAKNTVYLQMNSLKPEDTAVYYCAVKGFSTRSYREFDYWGQGTQVTVSS	low polyreactivity
QVQLVESGGGLVQAGGSLRLSCAASGFIFVLYAMGWYRQAPRKERELVAAISRGGSSTYYADSVKGRFTISRDNAKNTVYLQMNSLKPEATAVYYCAARIRNWPAMDYWGQGTQVTVSS	high polyreactivity
QVQLVESGGGLVQAGGSLRLSCAASGFIFVNNVMGWYRQAPGKERELVAAISRRGGSTYYADSVKGRFTISRDNAKNTVYLQMNSLKPEDTAVYYCARRGPDFSWKYDYWGQGTQVTVSS	high polyreactivity
QVQLVESGGGLVQAGGSLRLSCAASGFIFVVYAMGWYRQAPGKERELVATISSGGGTYYADSVKGRFTISRDNAKNTVYLQMNSLKPEDTAVYYCAARRRRLYHFGGNNYWGQGTQVTVSS	high polyreactivity
QVQLVESGGGLVQAGGSLRLSCAASGFIFVVYAMGWYRQAPGTERDLVATISSGGGTYYADSVKGRFTISLDNAKNTVYLQMNSLKPEDTAVYYCAARRRRLYHFGGNNYCGQGTQVTVSS	high polyreactivity
QVQLVESGGGLVQAGGSLRLSCAASGFIFVWNAMGWYRQAPGKERELVANIRDGGITYADSVKGRFTITRDNAKNTVYLQMNSLKPEDTAVYYCARTNFYRSYEPGGRFYNYDYWGQGTQVTVSS	low polyreactivity
QVQLVESGGGLVQAGGSLRLSCAASGFIFVYGNVMGWYRQAPGKERELVASITSDGGSTNYADSVKGRFTISRDNAKNTVYLQMNSLKPEDTAVYYCNADVPRGFGGEYDYWGQGTQVTVSS	low polyreactivity
QVQLVESGGGLVQAGGSLRLSCAASGFIFVYYAMGWYRQAPGKERELVAAISGHGGRTYYADSVKGRFTISRDNAKNTVYLQLNSLKPEDTAVYYCAALLYWRGYGYNYWGQGTQVTVSS	high polyreactivity
QVQLVESGGGLVQAGGSLRLSCAASGFIFWGNAMGWYRQAPGKERELVAAINYSGGRTYYSDSVKGRFTISRDNAKNTVYLQMNSLKPEDTAVYYCAATGPVNRASYDYWGQGTQVTVSS	high polyreactivity
QVQLVESGGGLVQAGGSLRLSCAASGFIFWGNAMGWYRQAPGKERELVAAITYSGDRTYYADSVKGRFTISRDNAKNTVYLQMNSLKPEDTAVYYCNADLALRSRYGEYDYWGQGTQVTVSS	high polyreactivity
QVQLVESGGGLVQAGGSLRLSCAASGFIFWKNAMGWYRQAPGKERELVAAISWSGGRTYYADSVKGRFTISRDNAKNTFYLQINSLKPEETAVYYCNAAGRYKPGAPYDYWGQGTQVTVSS	low polyreactivity
QVQLVESGGGLVQAGGSLRLSCAASGFIFWLYAMGRYRQAPGKERELVAAISNGGSTNYADSVKGRFTISRDNAKNTVYLQMNSLKPEDTAVYYCAAKFPRRFYWYDYWGQGTQVTVSS	high polyreactivity
QVQLVESGGGLVQAGGSLRLSCAASGFIFWQYTMGWYRQAPGKERELVAAITWRGTRTYADSVKGRFTISRDNAKNTVYLQMNSLKPEDTAVYYCAAREYYHGPDGGYYGYDYWGQGTQVTVSS	high polyreactivity
